Positions count from the first letter of the chain named. In names and notes the source's numbering stands. Each block holds one molecule with its values, some of them ahead of it.
Assays:
[1] = target: Human LILRB5 ECD recombinant protein with 6×His-tag (human) (UniProt O75023); test: ELISA: plate coated with LILRB5 ECD recombinant protein, antibody at 0.5 ug/mL (method of example 3.2.1); mean OD450 printed over the bar [continued) I]
[2] = target: Human LILRA5 ECD recombinant protein with 6×His-tag (human) (UniProt A6NI73); test: ELISA: plate coated with LILRA5 ECD recombinant protein, antibody at 0.5 ug/mL (method of example 3.2.1); mean OD450 printed over the bar [continued) E]
[3] = target: Human LILRB3 ECD recombinant protein with 6×His-tag (human) (UniProt O75022); test: ELISA: plate coated with LILRB3 ECD recombinant protein, antibody at 0.5 ug/mL (method of example 3.2.1); mean OD450 printed over the bar [continued) G]
[4] = target: Human LILRA3 ECD recombinant protein with 6×His-tag (human) (UniProt Q8N6C8); test: ELISA: plate coated with LILRA3 ECD recombinant protein, antibody at 0.5 ug/mL (method of example 3.2.1); mean OD450 printed over the bar [continued) C]
[5] = target: Human LILRA2 ECD recombinant protein with His-tag (human) (UniProt Q8N149); test: ELISA: plate coated with LILRA2 ECD recombinant protein, antibody at 0.5 ug/mL (method of example 3.2.1); mean OD450 printed over the bar [continued) B]
[6] = target: Human LILRB1 ECD recombinant protein with 6×His-tag (human) (UniProt Q8NHL6); test: ELISA: plate coated with LILRB1 ECD recombinant protein, antibody at 0.5 ug/mL (method of example 3.2.1); mean OD450 printed over the bar [continued) F]
[7] = target: Human LILRA1 ECD recombinant protein with 6×His-tag (human) (UniProt O75019); test: ELISA: plate coated with LILRA1 ECD recombinant protein, antibody at 0.5 ug/mL (method of example 3.2.1); mean OD450 printed over the bar
[8] = target: Human LILRA4 ECD recombinant protein with 6×His-tag (human) (UniProt P59901); test: ELISA: plate coated with LILRA4 ECD recombinant protein, antibody at 0.5 ug/mL (method of example 3.2.1); mean OD450 printed over the bar [continued) D]
[9] = target: 6×His-tagged human LILRB2 ECD recombinant protein (human) (UniProt Q8N423); test: ELISA: plate coated with 6xHis-tagged human LILRB2 ECD, antibody at 0.5 ug/mL, HRP detection antibody; mean OD450 printed over the bar
[10] = target: Human LILRB4 ECD recombinant protein with 6×His-tag (human) (UniProt Q8NHJ6); test: ELISA: plate coated with LILRB4 ECD recombinant protein, antibody at 0.5 ug/mL (method of example 3.2.1); mean OD450 printed over the bar [continued) H]
[11] = target: T1, 6×His-tagged human LILRB2 ECD recombinant protein (human, UniProt Q8N423 22-458, limits assumed); test: Bio-Layer Interferometry, hybridoma antibody on human LILRB2
T1 construct: Bought protein; not shown: 6×His-tag

[12] = target: T2, Human LILRB2 stably expressed on EL4 cells (EL4/LILRB2) (human, UniProt Q8N423 22-597); test: FACS on EL4/LILRB2 cells
T2 construct: also called EL4-LILRB2 cells; cell membrane human LILRB2

[13] = target: T2, Human LILRB2 stably expressed on EL4 …; test: competitive FACS, blockade of HLA-G binding to LILRB2 on cells
Method: The blocking activities were determined by quantitating the blockade of the ligands binding to EL4/LILRB2 cells.

[14] = target: T1, 6×His-tagged human LILRB2 ECD …; test: Octet, 1:1 model
[15] = target: T1, 6×His-tagged human LILRB2 ECD …; test: Octet, 1:1 model; column printed as 'kd (1/s)', heads of c4 and c5 are swapped
[16] = target: T1, 6×His-tagged human LILRB2 ECD …; test: Octet, 1:1 model; column printed as 'ka (1/Ms)', heads of c4 and c5 are swapped
[17] = target: T1, 6×His-tagged human LILRB2 ECD …; test: Biacore, 1:1 model; column printed as 'ka (1/Ms)', heads of c4 and c5 are swapped
[18] = target: T1, 6×His-tagged human LILRB2 ECD …; test: Biacore, 1:1 model
[19] = target: T1, 6×His-tagged human LILRB2 ECD …; test: Biacore, 1:1 model; column printed as 'kd (1/s)', heads of c4 and c5 are swapped

T2 sequence (Q8N423 22-597 limits assumed): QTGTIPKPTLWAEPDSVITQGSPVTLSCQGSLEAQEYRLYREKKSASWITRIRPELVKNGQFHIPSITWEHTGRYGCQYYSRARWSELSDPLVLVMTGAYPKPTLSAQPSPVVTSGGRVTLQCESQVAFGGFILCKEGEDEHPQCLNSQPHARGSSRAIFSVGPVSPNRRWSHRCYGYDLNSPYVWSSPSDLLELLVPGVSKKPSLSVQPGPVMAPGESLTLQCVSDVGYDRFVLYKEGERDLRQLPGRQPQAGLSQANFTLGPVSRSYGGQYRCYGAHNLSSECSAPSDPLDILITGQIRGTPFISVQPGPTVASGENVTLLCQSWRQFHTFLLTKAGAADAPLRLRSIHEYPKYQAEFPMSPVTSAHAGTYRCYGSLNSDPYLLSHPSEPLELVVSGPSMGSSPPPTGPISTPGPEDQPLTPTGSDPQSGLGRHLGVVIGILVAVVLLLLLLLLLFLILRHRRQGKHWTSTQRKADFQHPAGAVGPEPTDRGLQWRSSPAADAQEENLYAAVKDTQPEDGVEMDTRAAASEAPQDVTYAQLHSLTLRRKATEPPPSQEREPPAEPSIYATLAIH
T1 sequence (Q8N423 22-458 limits assumed): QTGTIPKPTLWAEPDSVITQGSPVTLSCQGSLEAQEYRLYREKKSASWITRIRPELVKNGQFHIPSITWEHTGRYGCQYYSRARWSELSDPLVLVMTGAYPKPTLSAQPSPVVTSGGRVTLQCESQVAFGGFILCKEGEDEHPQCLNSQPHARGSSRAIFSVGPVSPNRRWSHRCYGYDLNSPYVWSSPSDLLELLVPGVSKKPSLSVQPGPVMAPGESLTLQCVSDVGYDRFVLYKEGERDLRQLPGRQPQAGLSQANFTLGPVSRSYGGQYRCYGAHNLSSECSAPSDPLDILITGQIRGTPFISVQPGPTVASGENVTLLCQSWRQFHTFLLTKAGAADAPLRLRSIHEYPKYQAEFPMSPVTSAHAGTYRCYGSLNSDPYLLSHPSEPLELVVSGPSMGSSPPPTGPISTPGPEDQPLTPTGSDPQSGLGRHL
Sequence of Human LILRA3 ECD recombinant protein with 6×His-tag (human) (Q8N6C8 24-439 limits assumed, form in doubt): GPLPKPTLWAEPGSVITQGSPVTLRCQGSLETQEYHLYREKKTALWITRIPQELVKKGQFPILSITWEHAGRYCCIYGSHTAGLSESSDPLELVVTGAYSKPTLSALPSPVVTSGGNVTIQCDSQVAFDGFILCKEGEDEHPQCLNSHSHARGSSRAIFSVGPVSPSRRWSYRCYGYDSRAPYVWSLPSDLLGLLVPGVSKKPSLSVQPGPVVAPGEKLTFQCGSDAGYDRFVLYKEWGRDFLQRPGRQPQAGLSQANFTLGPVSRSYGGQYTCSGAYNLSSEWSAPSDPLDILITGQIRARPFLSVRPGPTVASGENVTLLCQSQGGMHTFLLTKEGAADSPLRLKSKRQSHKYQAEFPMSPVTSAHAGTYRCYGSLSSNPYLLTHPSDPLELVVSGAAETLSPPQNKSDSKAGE
Sequence of Human LILRB1 ECD recombinant protein with 6×His-tag (human) (Q8NHL6 24-458 limits assumed): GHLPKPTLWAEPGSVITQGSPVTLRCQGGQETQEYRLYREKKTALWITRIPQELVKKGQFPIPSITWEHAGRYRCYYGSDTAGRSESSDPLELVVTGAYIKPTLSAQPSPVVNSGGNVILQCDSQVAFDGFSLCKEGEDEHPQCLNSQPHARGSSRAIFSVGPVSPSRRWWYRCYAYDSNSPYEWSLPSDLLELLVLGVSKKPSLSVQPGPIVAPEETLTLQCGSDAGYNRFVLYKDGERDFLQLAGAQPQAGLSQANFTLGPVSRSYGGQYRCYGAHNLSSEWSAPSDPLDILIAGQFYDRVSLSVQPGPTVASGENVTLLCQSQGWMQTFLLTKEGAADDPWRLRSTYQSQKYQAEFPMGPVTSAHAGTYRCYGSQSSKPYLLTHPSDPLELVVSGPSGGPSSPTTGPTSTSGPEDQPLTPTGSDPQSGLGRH
Sequence of Human LILRA2 ECD recombinant protein with His-tag (human) (Q8N149 24-449 limits assumed): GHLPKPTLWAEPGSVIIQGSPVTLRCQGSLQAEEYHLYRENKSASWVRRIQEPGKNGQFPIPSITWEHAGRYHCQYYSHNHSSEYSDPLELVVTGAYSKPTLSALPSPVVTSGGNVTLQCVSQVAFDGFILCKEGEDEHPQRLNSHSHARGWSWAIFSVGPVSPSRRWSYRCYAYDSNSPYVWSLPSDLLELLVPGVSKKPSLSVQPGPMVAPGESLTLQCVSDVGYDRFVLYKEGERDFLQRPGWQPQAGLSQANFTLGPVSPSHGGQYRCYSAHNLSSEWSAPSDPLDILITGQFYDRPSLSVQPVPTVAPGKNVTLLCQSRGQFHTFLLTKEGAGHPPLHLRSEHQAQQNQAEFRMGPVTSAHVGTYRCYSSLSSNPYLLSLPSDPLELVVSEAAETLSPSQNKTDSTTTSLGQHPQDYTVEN
Sequence of Human LILRA1 ECD recombinant protein with 6×His-tag (human) (O75019 17-461 limits assumed): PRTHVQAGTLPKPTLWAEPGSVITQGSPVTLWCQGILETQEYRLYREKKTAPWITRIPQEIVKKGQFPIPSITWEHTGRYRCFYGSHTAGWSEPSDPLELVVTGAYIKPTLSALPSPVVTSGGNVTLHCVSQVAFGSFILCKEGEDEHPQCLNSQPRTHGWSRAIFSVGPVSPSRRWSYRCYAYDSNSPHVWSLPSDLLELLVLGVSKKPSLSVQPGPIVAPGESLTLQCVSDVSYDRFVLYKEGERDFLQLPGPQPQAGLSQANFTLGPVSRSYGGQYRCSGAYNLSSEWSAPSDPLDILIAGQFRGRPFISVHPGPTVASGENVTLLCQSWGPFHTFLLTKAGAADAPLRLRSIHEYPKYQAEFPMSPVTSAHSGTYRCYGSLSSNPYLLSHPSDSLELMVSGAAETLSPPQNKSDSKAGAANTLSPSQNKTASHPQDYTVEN
Sequence of 6×His-tagged human LILRB2 ECD recombinant protein (human) (Q8N423 22-458 limits assumed): as the sequence (Q8N423 22-458 limits assumed) above
Sequence of Human LILRA4 ECD recombinant protein with 6×His-tag (human) (P59901 24-446 limits assumed): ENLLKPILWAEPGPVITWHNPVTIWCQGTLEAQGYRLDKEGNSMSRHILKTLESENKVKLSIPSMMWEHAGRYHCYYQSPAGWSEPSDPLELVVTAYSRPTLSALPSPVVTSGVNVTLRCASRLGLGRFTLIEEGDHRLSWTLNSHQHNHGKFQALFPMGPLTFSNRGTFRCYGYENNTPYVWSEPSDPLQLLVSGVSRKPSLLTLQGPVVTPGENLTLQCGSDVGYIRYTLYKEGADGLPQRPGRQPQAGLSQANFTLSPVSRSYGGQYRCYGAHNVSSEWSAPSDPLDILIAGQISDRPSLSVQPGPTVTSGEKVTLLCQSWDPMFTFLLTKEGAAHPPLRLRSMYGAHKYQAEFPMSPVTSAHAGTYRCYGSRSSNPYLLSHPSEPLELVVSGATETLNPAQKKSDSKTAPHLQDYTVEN
Sequence of Human LILRA5 ECD recombinant protein with 6×His-tag (human) (A6NI73 42-268 limits assumed, form in doubt): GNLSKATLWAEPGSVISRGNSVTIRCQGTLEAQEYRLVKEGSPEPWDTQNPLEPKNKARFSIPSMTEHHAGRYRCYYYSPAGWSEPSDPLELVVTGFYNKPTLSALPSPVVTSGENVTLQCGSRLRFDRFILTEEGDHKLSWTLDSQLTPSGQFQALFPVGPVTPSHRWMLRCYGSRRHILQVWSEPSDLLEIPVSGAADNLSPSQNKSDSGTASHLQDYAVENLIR
Sequence of Human LILRB5 ECD recombinant protein with 6×His-tag (human) (O75023 24-458 limits assumed): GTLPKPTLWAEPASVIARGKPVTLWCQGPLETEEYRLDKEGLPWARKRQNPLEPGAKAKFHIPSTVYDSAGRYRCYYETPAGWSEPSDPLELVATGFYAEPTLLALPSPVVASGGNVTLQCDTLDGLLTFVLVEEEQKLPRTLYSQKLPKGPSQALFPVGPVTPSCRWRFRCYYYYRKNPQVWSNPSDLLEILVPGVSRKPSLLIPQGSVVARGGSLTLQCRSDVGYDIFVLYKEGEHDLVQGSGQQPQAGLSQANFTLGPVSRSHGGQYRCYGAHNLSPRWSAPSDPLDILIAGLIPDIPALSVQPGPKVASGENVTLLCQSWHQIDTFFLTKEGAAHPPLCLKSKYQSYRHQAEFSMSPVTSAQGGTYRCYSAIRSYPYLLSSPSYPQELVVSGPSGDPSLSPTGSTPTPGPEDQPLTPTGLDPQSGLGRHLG

Molecule: hIgG4 iso (antibody)
- OD450 [1]: 0.08
- OD450 [2]: 0.08
- OD450 [3]: 0.08
- OD450 [4]: 0.08
- OD450 [5]: 0.07
- OD450 [6]: 0.08
- OD450 [7]: 0.15
- OD450 [8]: 0.16
- OD450 [9]: 0.08
- OD450 [10]: 0.14

B2: hu043.04 (antibody, V domains shown)
VH: QVQLVQSGAEVKKPGASVKVSCKASGYTFTSYWMYWVRQAPGQGLEWIGHINPSSGYTKYNQKFKDRATLTADTSTSTAYMELSSLRSEDTAVYYCARDPNWDNYWGQGTTVTVSS
VL: DIQMTQSPSSLSASVGDRVTITCKASQDVSIAVAWYQQKPGKAPKLLIYSASYRYTGVPSRFSGSGSGTDFTFTISSLQPEDIATYYCQQHYSTPYTFGGGTKLEIK
notes: Humanized human IgG4 antibody with S228P in the constant region; also called hu043VH6 / hu043VL2
- EC50 [12]: 0.43 nM
- TOP MFI [12]: 45000 MFI
- IC50 [13]: 0.11 nM
- TOP Blocking (%) [13]: 100%
- Kd [14]: 3.78 nM
- kon [15]: 488000 M⁻¹ s⁻¹
- koff [16]: 0.00185 s⁻¹

B4: hu043.05 (antibody, V domains shown)
VH: B2 VH with A68V, L70M, A79V
VL: B2 VL
notes: Humanized human IgG4 antibody with S228P in the constant region; also called hu043VH7 / hu043VL2
- EC50 [12]: 0.42 nM
- TOP MFI [12]: 45100 MFI
- IC50 [13]: 0.09 nM
- TOP Blocking (%) [13]: 100%
- Kd [14]: 3.9 nM
- kon [15]: 501000 M⁻¹ s⁻¹
- koff [16]: 0.00199 s⁻¹

B6: hu043.06 (antibody, V domains shown)
VH: B2 VH with V5Q, V20L, A40R
VL: B2 VL
notes: Humanized human IgG4 antibody with S228P in the constant region; also called hu043VH8 / hu043VL2
- EC50 [12]: 0.4 nM
- TOP MFI [12]: 45700 MFI
- IC50 [13]: 0.11 nM
- TOP Blocking (%) [13]: 100%
- Kd [14]: 3.63 nM
- kon [15]: 512000 M⁻¹ s⁻¹
- koff [16]: 0.00186 s⁻¹

B7: hu043.02 (antibody, V domains shown)
VH: B2 VH with A68V, L70M, A79V
VL: B2 VL with Q3V, T20S, S60D
notes: Humanized human IgG4 antibody with S228P in the constant region; also called hu043VH7 / hu043VL4
- EC50 [12]: 0.35 nM
- TOP MFI [12]: 45700 MFI
- IC50 [13]: 0.1 nM
- TOP Blocking (%) [13]: 100%
- Kd [14]: 3.57 nM
- kon [15]: 517000 M⁻¹ s⁻¹
- koff [16]: 0.00184 s⁻¹

B8: hu043.07 (antibody, V domains shown)
VH: B2 VH with R67K, T74K
VL: B2 VL with L11M, L78V
notes: Humanized human IgG4 antibody with S228P in the constant region; also called hu043VH9 / hu043VL1
- koff [17]: 0.00379 s⁻¹
- Kd [18]: 1.68 nM
- kon [19]: 2.25e+06 M⁻¹ s⁻¹
- IC50 [13]: 0.19 nM
- TOP Blocking (%) [13]: 100%

Other lines, results leading:

- Kd [11]: 1.35 nM
- koff [11]: 0.00139 s⁻¹
- kon [11]: 1.04e+06 M⁻¹ s⁻¹
B1: monoclonal antibody secreted by hybridoma clone 8G2F10 (antibody, V domains shown)
VH: QVQLQQSGAELAKPGASVKLSCKASGYTFTSYWMYWVKQRPGQGLEWIGHINPSSGYTKYNQKFKDKATLTADKSSSTAYMQLSSLTYEDSAVYYCARDPNWDNYWGQGTTLTVSS
VL: DIVMTQSHKFMSTSVGDRVSITCKASQDVSIAVAWYQQKPGQSPKLLIYSASYRYTGVPDRFTGSGSGTDFTFTISSVQAEDLAVYYCQQHYSTPYTFGGGTKLEIK
notes: Mouse hybridoma antibody

- EC50 [12]: 0.41 nM
- TOP MFI [12]: 46300 MFI
- IC50 [13]: 0.1 nM
- TOP Blocking (%) [13]: 100%
- Kd [14]: 5.22 nM
- kon [15]: 466000 M⁻¹ s⁻¹
- koff [16]: 0.00243 s⁻¹
B3: hu043.03 (antibody, V domains shown)
VH: B2 VH with V5Q, V20L, A40R
VL: B2 VL with Q3V, T20S, S60D
notes: Humanized human IgG4 antibody with S228P in the constant region; also called hu043VH8 / hu043VL4

- EC50 [12]: 0.42 nM
- TOP MFI [12]: 45800 MFI
- IC50 [13]: 0.11 nM
- TOP Blocking (%) [13]: 100%
- Kd [14]: 3.19 nM
- kon [15]: 516000 M⁻¹ s⁻¹
- koff [16]: 0.00164 s⁻¹
B5: hu043.01 (antibody, V domains shown)
VH: B2 VH
VL: B2 VL with Q3V, T20S, S60D
notes: Humanized human IgG4 antibody with S228P in the constant region; also called hu043VH6 / hu043VL4

- koff [17]: 0.00378 s⁻¹
- Kd [18]: 1.71 nM
- kon [19]: 2.21e+06 M⁻¹ s⁻¹
- IC50 [13]: 0.19 nM
- TOP Blocking (%) [13]: 100%
B9: hu043.08 (antibody, V domains shown)
VH: B2 VH with R67K, T74K, V112L
VL: B2 VL with L11M, L78V
notes: Humanized human IgG4 antibody with S228P in the constant region; also called hu043VH10 / hu043VL1

Source: US20260008847A1 (ELPISCIENCE SUZHOU BIOPHARMA, published 2026)
